What all share (assay): split reporter
The target in assay [1] is T1, Cpr5p (S. cerevisiae, UniProt P35176 23-225).
Assay [2] has as its target T1, Cpr5p. The source holds these as a separate data set.
The target of another assay is T2, Scj1p (S. cerevisiae, UniProt P25303 22-377).
T2 sequence: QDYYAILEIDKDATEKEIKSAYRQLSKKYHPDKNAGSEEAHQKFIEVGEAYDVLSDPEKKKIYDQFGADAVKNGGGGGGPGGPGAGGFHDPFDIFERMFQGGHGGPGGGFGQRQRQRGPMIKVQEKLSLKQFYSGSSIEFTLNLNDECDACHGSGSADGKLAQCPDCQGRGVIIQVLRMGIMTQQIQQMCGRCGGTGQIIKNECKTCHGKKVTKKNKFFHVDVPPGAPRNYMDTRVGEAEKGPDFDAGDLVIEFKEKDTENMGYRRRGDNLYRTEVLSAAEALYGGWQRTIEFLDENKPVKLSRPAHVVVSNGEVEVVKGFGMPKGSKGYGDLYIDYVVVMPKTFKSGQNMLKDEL

The target in the next assay is T3, Sil1p (S. cerevisiae, UniProt Q08199 20-421).
T3 sequence: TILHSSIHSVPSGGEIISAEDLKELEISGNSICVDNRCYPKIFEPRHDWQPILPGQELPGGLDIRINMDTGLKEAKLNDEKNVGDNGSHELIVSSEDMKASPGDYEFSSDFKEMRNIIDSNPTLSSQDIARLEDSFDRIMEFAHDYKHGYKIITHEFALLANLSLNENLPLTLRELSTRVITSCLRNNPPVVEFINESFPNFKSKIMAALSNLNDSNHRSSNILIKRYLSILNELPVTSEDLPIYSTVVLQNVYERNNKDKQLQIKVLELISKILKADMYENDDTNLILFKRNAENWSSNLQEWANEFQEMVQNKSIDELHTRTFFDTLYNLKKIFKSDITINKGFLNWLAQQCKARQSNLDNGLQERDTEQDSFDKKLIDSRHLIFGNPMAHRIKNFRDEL

The target in assay [3] is T4, Kar2p (S. cerevisiae, UniProt P16474 43-682).
The target in assay [4] is T4, Kar2p. The source holds these as a separate data set.
A further assay addresses T5, Lto1p (yeast, UniProt P53846 1-162).
T5 sequence: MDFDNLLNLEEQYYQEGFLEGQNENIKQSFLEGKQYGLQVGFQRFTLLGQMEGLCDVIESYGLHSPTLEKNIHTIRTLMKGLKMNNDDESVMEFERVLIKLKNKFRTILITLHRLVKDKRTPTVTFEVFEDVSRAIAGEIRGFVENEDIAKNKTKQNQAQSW

Like-named read-outs stand apart in the source and are kept apart here.

T1 sequence (P35176 23-225): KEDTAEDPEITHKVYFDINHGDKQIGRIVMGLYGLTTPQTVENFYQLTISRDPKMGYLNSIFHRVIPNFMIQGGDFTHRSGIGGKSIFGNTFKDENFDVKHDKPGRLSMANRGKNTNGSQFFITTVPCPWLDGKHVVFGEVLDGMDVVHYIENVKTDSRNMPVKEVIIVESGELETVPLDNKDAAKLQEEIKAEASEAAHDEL
T4 sequence (P16474 43-682): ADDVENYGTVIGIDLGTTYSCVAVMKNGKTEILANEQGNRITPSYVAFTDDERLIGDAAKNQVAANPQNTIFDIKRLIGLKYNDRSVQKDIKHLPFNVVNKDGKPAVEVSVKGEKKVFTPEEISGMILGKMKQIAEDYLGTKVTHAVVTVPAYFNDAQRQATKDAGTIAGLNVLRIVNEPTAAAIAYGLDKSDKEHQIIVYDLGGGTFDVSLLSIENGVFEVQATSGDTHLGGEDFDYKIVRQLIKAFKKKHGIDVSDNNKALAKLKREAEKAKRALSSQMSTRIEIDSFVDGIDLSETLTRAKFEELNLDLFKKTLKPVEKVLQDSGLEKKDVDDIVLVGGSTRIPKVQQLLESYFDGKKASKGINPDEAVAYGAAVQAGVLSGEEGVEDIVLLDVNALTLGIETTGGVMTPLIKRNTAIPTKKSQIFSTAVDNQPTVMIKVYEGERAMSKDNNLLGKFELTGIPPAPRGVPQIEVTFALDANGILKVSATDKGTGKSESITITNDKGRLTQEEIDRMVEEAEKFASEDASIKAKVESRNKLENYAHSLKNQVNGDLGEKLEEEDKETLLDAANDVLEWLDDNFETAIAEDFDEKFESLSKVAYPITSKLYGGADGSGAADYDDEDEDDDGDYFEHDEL

B1: Pdi1p (natural protein)
chain: PEDSAVVKLATDSFNEYIQSHDLVLAEFFAPWCGHCKNMAPEYVKAAETLVEKNITLAQIDCTENQDLCMEHNIPGFPSLKIFKNSDVNNSIDYEGPRTAEAIVQFMIKQSQPAVAVVADLPAYLANETFVTPVIVQSGKIDADFNATFYSMANKHFNDYDFVSAENADDDFKLSIYLPSAMDEPVVYNGKKADIADADVFEKWLQVEALPYFGEIDGSVFAQYVESGLPLGYLFYNDEEELEEYKPLFTELAKKNRGLMNFVSIDARKFGRHAGNLNMKEQFPLFAIHDMTEDLKYGLPQLSEEAFDELSDKIVLESKAIESLVKDFLKGDASPIVKSQEIFENQDSSVFQLVGKNHDEIVNDPKKDVLVLYYAPWCGHCKRLAPTYQELADTYANATSDVLIAKLDHTENDVRGVVIEGYPTIVLYPGGKKSESVVYQGSRSLDSLFDFIKENGHFDVDGKALYEEAQEKAAEEADADAELADEEDAIHDEL
As for B1, the figures for the normalized interacting score in the assay with Cpr5p [1] and with Cpr5p [2] were 32% and 18%, respectively.

B2: Eug1p (natural protein)
chain: TPGSDLLVLTEKKFKSFIESHPLVLVEFFAPWCLHSQILRPHLEEAASILKEHNVPVVQIDCEANSMVCLQQTINTYPTLKIFKNGRIFDGQVYRGVKITDEITQYMIQLYEASVIYLNSEDEIQPYLENATLPVVINRGLTGLNETYQEVALDLAEDYVFLSLLDSEDKSLSIHLPNTTEPILFDGNVDSLVGNSVALTQWLKVVILPYFTDIEPDLFPKYISSNLPLAYFFYTSEEELEDYTDLFTQLGKENRGQINFIALNSTMFPHHVRFLNMREQFPLFAIHNMINNLKYGLPQLPEEEYAKLEKPQPLDRDMIVQLVKDYREGTAKPIVKSEEIPKEQKSNVYKIVGKTHDDIVHDDDKDVLVKYYATWCIHSKRFAPIYEEIANVLASDESVRDKILIAEVDSGANDILSFPVTGYPTIALYPAGNNSKPIIFNKIRNLEDVFEFIKESGTHHIDGQAIYDKLHQAKDSEVSTEDTVHDEL
The molecule B2 showed a normalized interacting score in the assay with Scj1p of 5%.

B3: Sec20p (natural protein)
chain: MVVTFLQDLEVLQDALLNNLQKLSAISRRKESGESKHDNKDSFAAIANEHNDEEEEIEFEDLVNIIESKVSDFESVLKCSIVEMTYKYPELKLQWEKSPRYDQCDKLHIVKLDKQMNEDIYAQLVEELDFVLQFVDWFYCYRLKVKEILRQHHKRDLAWNDEKRDRAIKFHAVDYDKLHQGTSSSSSLTSTSMEKASTREKLLSKTKQLTNNLVRGNQILQSGILQSDLNLDELRAQTNSLTQIDDKYTQFETVFKKTADLVKVLENASHQEKRDVYLSLGFLLCCVSWVLWRRIFKLPVKLGLWLLFKFFKGILVTLGLVKSYAGSSSSLQAPSLVLNAPILATTTTSSATSVEPFASVSAVSSIQRAVDEAVDRIVSHDEL
For the molecule B3, the normalized interacting score in the assay with Sil1p came out at 32%; with Cpr5p [1], 26%; in the assay with Kar2p [3] it was 42%.

B4: Sed4p (natural protein)
chain: MSGNSANYDVGYPIYGAKFINEGTLLVAGGGGQFNSSFPNKITALKVNFQKKKHIRRFREITLDSIDDAPTSLDCNNNLILVGCNELFNDSSMENVNHHLRKFVFEQEHLKFVASIDFNRTTDPSVFTKFVYINQRATVAAIASSEVPTVIRIIDPRNLTENYEIETGREVNDLHFAPNGILLSYITSNSLEVASVRDGNFVARKTDFDKNLVLSNIRFLNDNTLLVAASLSNSDGVSLLKLGVSSKGVKILKTASFMFDLNGITSMDVSPNKKFVALSSNDNLVAIVSVEKLKLVQLVPRVHESTITKVTFSPDSRYLASTSMGNTINVLKLSGTSSSILRNIWKFFLNFVLLVVLAGAIQLGYKHNVHGFIYKHAHDIYKSKFKENTTIDQGSSSYFTINDDYRGITESADIISATDVASDIETEFSSFDTSTMRTTTEDEQKFVWISSSADSQFTSADIPTSASSSSSSSSSSFYEESVTNEPIVSSPTSEITKPLASPTEPNIVEKPSLPLNSESIDLLSSSSNSITEYPEPTPDLEEKLSSLIVEQSESEITTDRESVSKLLSTESPSLSHMPSSSSSSLSLSSSLTTSPTTALSTSTATAVTTTQTNPTNDAANTSFLDNSKPASTREIYKTKIITEVITKIEYRNIPASDSNAEAEQYVTTSSSMLLTPTDTMVSSPVSEIDPIASELERMVETPTHSISIASEFDSVASNLIPNEEILSTSASQDSISSHPSTFSDSSITSGFQSIEVSTVTSSVLASESIPSISDSTFSKFHSISEPVSSAIVETATSSFSKTETKTSRVIAFSTEDSERSSALIDNSEYTSVLADNLEPTSVLADNSEPTSVLADSSEPTSVFTDAVQSPKTSVGQSSLSESTNIEGTSMASMIFSSSGASIGALSDIGKGTLSVESASSTVAQPMPGVTTTAPSFVSSPHKISASSIDASGFVQKEIMIEVQSSKDSSEAFGVRHKISENVNTPVSRMLTTEMQASGTVDVTEDVSLSSEVISALNVEITSLPNPVAPPQTIAAPLNNNSNTNIVNDDNAVAGTVNYAGLHDEL
B4: the normalized interacting score with Kar2p [4] turned out to be 34%.

B5: Yae1p (natural protein)
chain: MSNTWDDVWASDSDVETERSPDLVKLRENHSKRGYLDGIVSSKEEKLQEGFNDGFPTGAKLGKQVGIIMGILLGLRTRFGDEDEDLSKAYIDAQKELRINKVLSKSIFDPNFDLQEKHPLITKWTDIANTYCEKYHVPSIQ
Consider B5, for which the normalized interacting score in the assay with Lto1p is 96%.

These data come from doi:10.1101/2024.05.21.594841 (bioRxiv, 2024).
